Experimental data reported in US9045527 (dated 2015).
Where no end group is shown, it is not given here.

B1: E(Rh)VQSTRL (peptide)
peptide: Ac-E(dirhodium)VQSTRL-OH
modifications: also: dirhodium metal complex at Glu side-chain carboxylate
B2: QLD^RhVTR metallopeptide (peptide)
peptide: Ac-QLD(dirhodium)VTR
modifications: also: dirhodium metal complex at Asp side-chain carboxylate
B3: E^RhWPTSII metallopeptide (peptide)
peptide: Ac-E(dirhodium)WPTSII-OH
modifications: also: dirhodium metal complex at Glu side chain
B4: VQDTRL (peptide)
peptide: Ac-VQDTRL-OH
B5: QLDVTR peptide (scrambled control sequence) (peptide)
peptide: Ac-QLDVTR
B6: EVQSTRL (peptide)
peptide: Ac-EVQSTRL-OH
B7: E^RhVQSTRL metallopeptide (peptide)
peptide: Ac-E(dirhodium)VQSTRL-OH
modifications: also: dirhodium metal complex at Glu side-chain carboxylate
B8: E(Rh)WPTSII (peptide)
peptide: Ac-E(dirhodium)WPTSII-OH
modifications: also: dirhodium metal complex at Glu side chain
B9: EWPTSII (peptide)
peptide: Ac-EWPTSII-OH
B10: VQD^RhTRL metallopeptide (peptide)
peptide: Ac-VQD(dirhodium)TRL-OH
modifications: also: dirhodium metal complex at Asp side-chain carboxylate

Columns and labels:
[1] = target: N1P1; assay: fluorescence anisotropy displacement; Fig 9B
[2] = target: T1, CAL PDZ domain (CALP), wild type (UniProt Q9HD26 278-362); assay: fluorescence anisotropy displacement; Fig 9A; upper bound, nonspecific Rh inhibition
[3] = target: T1, CAL PDZ domain (CALP), wild type; assay: fluorescence anisotropy displacement; Fig 9B
[4] = target: T1, CAL PDZ domain (CALP), wild type; assay: fluorescence anisotropy displacement; Fig 9A
[5] = target: CALP-H301A mutant (UniProt Q9HD26 278-362); assay: fluorescence anisotropy displacement; Fig 9B

Row | Binder | Ki [1] [nM] | Ki [3] [nM] | also measured
1 | B1 | 32 |  | 
2 | B2 |  |  | Ki [2]: 10 µM
3 | B3 |  | 1300 | 
4 | B4 | 700 |  | 
5 | B5 |  |  | Ki [4]: > 500 µM
6 | B6 | 710 |  | 
7 | B7 |  | 430 | Ki [5]: 11.3 µM
8 | B8 | > 50000 |  | 
9 | B9 | > 500000 |  | 
10 | B10 |  | ~49000 | 
